Assay results from paper PMC9482650, “Quantitative fragmentomics allow affinity mapping of interactomes” (Nature Communications, 2022).

Key:
Experiment in all cases: holdup assay
Design in all cases: key: below the threshold = too weak to quantify, mostly under pKd 3.1 to 4
Details in all cases: plain residues with an end cap or a label only (N-terminal biotin on a linker: ttds)
LNX2_4, Q8N448 = biological target: T1, LNX2_4, Q8N448
T1 sequence (Q8N448 595-690, limits assumed, looked up): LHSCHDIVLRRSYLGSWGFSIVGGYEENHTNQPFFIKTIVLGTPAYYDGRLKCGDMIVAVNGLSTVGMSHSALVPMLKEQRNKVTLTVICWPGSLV

Q9NPB6 = biological target: Q9NPB6
CARD14, Q9BXL6 = biological target: CARD14, Q9BXL6
LIMK1, P53667 = biological target: LIMK1, P53667
MPDZ_3, O75970 = biological target: T2, MPDZ_3, O75970
T2 sequence (O75970 372-473, limits assumed, looked up): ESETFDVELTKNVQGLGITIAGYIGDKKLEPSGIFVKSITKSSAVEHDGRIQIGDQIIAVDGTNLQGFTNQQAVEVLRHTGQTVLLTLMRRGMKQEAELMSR

MLLT4, P55196 = biological target: T3, MLLT4, P55196
T3 sequence (P55196 1002-1103, limits assumed, looked up): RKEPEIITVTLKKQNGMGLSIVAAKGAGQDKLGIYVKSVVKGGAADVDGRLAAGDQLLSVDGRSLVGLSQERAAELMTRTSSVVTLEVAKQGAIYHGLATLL

MAGI3_3, Q5TCQ9 = biological target: MAGI3_3, Q5TCQ9
Q9UMS6 = biological target: Q9UMS6
PREX1_1, Q8TCU6 = biological target: PREX1_1, Q8TCU6
Q96JY6 = biological target: Q96JY6
PDZD7_1, Q9H5P4 = biological target: T4, PDZD7_1, Q9H5P4
T4 sequence (Q9H5P4 81-178, limits assumed, looked up): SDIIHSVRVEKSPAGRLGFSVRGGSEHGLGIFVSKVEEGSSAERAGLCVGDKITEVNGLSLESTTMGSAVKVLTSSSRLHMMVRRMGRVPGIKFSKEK

MPP5, Q8N3R9 = biological target: T5, MPP5, Q8N3R9
T5 sequence (Q8N3R9 251-346, limits assumed, looked up): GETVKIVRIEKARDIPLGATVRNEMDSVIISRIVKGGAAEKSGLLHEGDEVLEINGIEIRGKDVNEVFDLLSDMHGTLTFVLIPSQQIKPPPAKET

MAGI3_4, Q5TCQ9 = biological target: MAGI3_4, Q5TCQ9
DVL2, O14641 = biological target: DVL2, O14641
PARD6B, Q9BYG5 = biological target: T6, PARD6B, Q9BYG5
T6 sequence (Q9BYG5 152-260, limits assumed, looked up): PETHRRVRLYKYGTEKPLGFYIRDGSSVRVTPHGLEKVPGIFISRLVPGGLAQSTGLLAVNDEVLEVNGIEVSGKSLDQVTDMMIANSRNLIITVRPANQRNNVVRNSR

MPDZ_6, O75970 = biological target: T7, MPDZ_6, O75970
T7 sequence (O75970 1003-1099, limits assumed, looked up): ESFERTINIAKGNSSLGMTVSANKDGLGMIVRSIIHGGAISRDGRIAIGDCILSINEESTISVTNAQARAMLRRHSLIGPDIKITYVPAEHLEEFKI

PDZD7_2, Q9H5P4 = biological target: T8, PDZD7_2, Q9H5P4
T8 sequence (Q9H5P4 205-303, limits assumed, looked up): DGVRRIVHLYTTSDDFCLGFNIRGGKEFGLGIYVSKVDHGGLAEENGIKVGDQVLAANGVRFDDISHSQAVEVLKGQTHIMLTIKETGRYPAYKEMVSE

SHANK2, Q9UPX8 = biological target: T9, SHANK2, Q9UPX8
T9 sequence (Q9UPX8 621-730, limits assumed, looked up): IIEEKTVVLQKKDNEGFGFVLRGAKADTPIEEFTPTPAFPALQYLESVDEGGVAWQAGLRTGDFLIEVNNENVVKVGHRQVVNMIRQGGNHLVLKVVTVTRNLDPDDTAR

PARD3B_2, Q8TEW8 = biological target: PARD3B_2, Q8TEW8
Q13368 = biological target: Q13368
RIMS1, Q86UR5 = biological target: RIMS1, Q86UR5
NHERF4_3, Q86UT5 = biological target: NHERF4_3, Q86UT5
TJP3_1, O95049 = biological target: T10, TJP3_1, O95049
T10 sequence (O95049 6-103, limits assumed, looked up): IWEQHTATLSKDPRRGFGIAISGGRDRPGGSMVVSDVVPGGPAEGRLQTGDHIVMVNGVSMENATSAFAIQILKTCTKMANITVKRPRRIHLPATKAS

PARD6G, Q9BYG4 = biological target: T11, PARD6G, Q9BYG4
T11 sequence (Q9BYG4 153-261, limits assumed, looked up): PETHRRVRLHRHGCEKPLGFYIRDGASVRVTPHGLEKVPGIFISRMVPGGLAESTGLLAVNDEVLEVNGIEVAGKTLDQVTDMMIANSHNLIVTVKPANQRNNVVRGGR

TJP1_1, Q07157 = biological target: TJP1_1, Q07157
MPDZ_13, O75970 = biological target: T12, MPDZ_13, O75970
T12 sequence (O75970 1982-2070, limits assumed, looked up): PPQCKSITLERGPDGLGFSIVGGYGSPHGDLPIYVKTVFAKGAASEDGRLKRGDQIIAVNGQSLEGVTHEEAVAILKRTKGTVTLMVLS

TJP1_1, Q07157, sequence (Q07157 18-120): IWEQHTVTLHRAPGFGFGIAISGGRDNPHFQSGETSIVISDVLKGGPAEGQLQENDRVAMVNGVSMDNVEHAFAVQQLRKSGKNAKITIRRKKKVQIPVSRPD
LIMK1, P53667, sequence (P53667 155-268): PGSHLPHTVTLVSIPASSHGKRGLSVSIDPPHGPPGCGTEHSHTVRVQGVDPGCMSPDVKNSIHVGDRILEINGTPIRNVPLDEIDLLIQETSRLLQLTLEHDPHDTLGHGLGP
NHERF4_3, Q86UT5, sequence (Q86UT5 325-412): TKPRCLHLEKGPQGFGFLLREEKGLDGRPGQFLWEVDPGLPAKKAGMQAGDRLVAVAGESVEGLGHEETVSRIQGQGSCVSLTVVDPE
CARD14, Q9BXL6, sequence (Q9BXL6 558-663): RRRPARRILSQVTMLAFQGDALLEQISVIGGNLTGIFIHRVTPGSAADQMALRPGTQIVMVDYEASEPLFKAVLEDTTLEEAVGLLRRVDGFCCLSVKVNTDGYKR
MAGI3_3, Q5TCQ9, sequence (Q5TCQ9 572-655): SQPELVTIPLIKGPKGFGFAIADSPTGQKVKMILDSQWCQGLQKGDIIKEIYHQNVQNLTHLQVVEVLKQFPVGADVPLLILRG
MAGI3_4, Q5TCQ9, sequence (Q5TCQ9 716-815): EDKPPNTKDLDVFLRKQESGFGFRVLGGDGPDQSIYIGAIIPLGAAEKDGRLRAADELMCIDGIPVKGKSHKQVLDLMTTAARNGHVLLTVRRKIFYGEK
PREX1_1, Q8TCU6, sequence (Q8TCU6 608-718): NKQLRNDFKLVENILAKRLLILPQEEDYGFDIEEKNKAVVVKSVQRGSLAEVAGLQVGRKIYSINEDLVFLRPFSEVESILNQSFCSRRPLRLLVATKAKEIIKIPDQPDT
RIMS1, Q86UR5, sequence (Q86UR5 584-692): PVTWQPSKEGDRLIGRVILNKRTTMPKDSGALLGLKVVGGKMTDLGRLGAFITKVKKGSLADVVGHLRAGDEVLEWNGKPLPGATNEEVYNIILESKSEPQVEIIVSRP
PARD3B_2, Q8TEW8, sequence (Q8TEW8 376-471): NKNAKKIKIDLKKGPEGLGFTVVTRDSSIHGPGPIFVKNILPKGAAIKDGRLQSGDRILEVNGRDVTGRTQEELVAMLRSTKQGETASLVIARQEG
DVL2, O14641, sequence (O14641 260-359): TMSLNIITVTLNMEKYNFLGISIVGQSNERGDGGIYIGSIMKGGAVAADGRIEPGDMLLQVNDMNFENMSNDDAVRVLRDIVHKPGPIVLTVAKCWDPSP

RLPKIKETTV [FRMPD4, Q14CM0]
pKd (LNX2_4, Q8N448): below the threshold
pKd (Q9NPB6): below the threshold
pKd (CARD14, Q9BXL6): below the threshold
pKd (LIMK1, P53667): 4.48
pKd (MPDZ_3, O75970): below the threshold
pKd (MLLT4, P55196): below the threshold
pKd (MAGI3_3, Q5TCQ9): below the threshold
pKd (Q9UMS6): below the threshold
pKd (PREX1_1, Q8TCU6): 4.75
pKd (Q96JY6): below the threshold
pKd (PDZD7_1, Q9H5P4): below the threshold
pKd (MPP5, Q8N3R9): below the threshold
pKd (MAGI3_4, Q5TCQ9): below the threshold
pKd (DVL2, O14641): below the threshold
pKd (PARD6B, Q9BYG5): below the threshold
pKd (MPDZ_6, O75970): below the threshold
pKd (PDZD7_2, Q9H5P4): below the threshold
pKd (SHANK2, Q9UPX8): below the threshold
pKd (PARD3B_2, Q8TEW8): below the threshold
pKd (Q13368): below the threshold
pKd (RIMS1, Q86UR5): below the threshold
pKd (NHERF4_3, Q86UT5): below the threshold
pKd (TJP3_1, O95049): below the threshold
pKd (PARD6G, Q9BYG4): below the threshold
pKd (TJP1_1, Q07157): below the threshold
pKd (MPDZ_13, O75970): below the threshold
